The record followed here is paper PMC3788124, “Crystal Structure of the Human Short Coiled Coil Protein and Insights into SCOC-FEZ1 Complex Formation” (PLoS ONE, 2013).

First the molecules themselves.
B1: Strep-tagged SCOC(78-159) E93V/K97L (domain or fragment, human)
chain: MAMMNADMDAVDAENQVVLEELTRLINQVLELQHTLEDLSARVDAVKEENLKLKSENQVLGQYIENLMSASSVFQTTDTKSKRKLVPRGS
notes: human SCOC, SwissProt entry Q9UIL1 isoform 1, residues 78-159, with E93V and K97L; linker between SCOC and the Strep-tag, as in the wild-type construct; Trimer by SEC-MALLS and native MS; also called trimeric SCOC mutant; double core mutant E93V/K97L; source: E. coli BL21 (DE3), purified (StrepTrap, Superdex 75); also co-expressed with FEZ1(227-290) in E. coli
B2: Strep-tagged SCOC(78-159) R99E (domain or fragment)
chain: not shown
notes: human SCOC, SwissProt entry Q9UIL1 isoform 1, residues 78-159, with R99E; linker between SCOC and the Strep-tag, as in the wild-type construct; also called R99E surface mutant; source: E. coli BL21 (DE3), purified (StrepTrap, Superdex 75); also co-expressed with FEZ1(227-290) in E. coli
B3: Strep-tagged SCOC(78-159) R117E (domain or fragment)
chain: not shown
notes: human SCOC, SwissProt entry Q9UIL1 isoform 1, residues 78-159, with R117E; linker between SCOC and the Strep-tag, as in the wild-type construct; also called R117E surface mutant; source: E. coli BL21 (DE3), purified (StrepTrap, Superdex 75); also co-expressed with FEZ1(227-290) in E. coli
B4: Strep-tagged SCOC(78-159) N125L/N132V (domain or fragment)
chain: not shown
notes: human SCOC, SwissProt entry Q9UIL1 isoform 1, residues 78-159, with N125L and N132V; linker between SCOC and the Strep-tag, as in the wild-type construct; Tetramer by SEC-MALLS and native MS; also called tetrameric core mutant; double core mutant N125L/N132V; source: E. coli BL21 (DE3), purified (StrepTrap, Superdex 75); also co-expressed with FEZ1(227-290) in E. coli
B5: C-terminal Strep-tagged SCOC(78-159), wild type (domain or fragment)
chain: not shown
notes: human short coiled coil protein (SCOC), SwissProt entry Q9UIL1 isoform 1, residues 78-159; underlined stretch of the printed construct; linker between SCOC and the Strep-tag in the printed construct; Dimer by SEC-MALLS and native MS; also called short coiled coil protein; Strep-SCOC(78-159); source: E. coli BL21 (DE3), purified (StrepTrap, Superdex 75); also co-expressed with FEZ1(227-290) in E. …
B6: Selenomethionine-labelled Strep-tagged L105M SCOC(78-159) (domain or fragment)
chain: not shown
modifications: selenomethionine-labelled
notes: human SCOC, SwissProt entry Q9UIL1 isoform 1, residues 78-159, with L105M; linker between SCOC and the Strep-tag, as in the wild-type construct; Crystallised by in situ proteolysis with subtilisin (1:2000 w/w), so the chain in the crystal may be shorter; the final model comprises residues 86-147 and the Strep-tag is not visible in the electron density; also called L105M SCOC mutant; SCOC_(78-159) …

In general, stoichiometry N refers to a count of units in the complex or per binding partner.

The first series concerns the molecule itself. Briefly: SEC-MALLS; SCOC constructs alone; 500 µL of 1.5 mg/ml on Superdex 200 10/300 GL; three measurements for each protein.
Consider B1, for which the “stoichiometry N” value worked out at 3. On the same count and under the same terms, then B2, with 2. Same read-out and setting: the figure for B3 is 2; for B4 it is 4.

Take B5: the “stoichiometry N” value stood at 2.

The next series concerns the molecule itself. The series is described as follows: crystal structure; selenomethionine-labelled L105M SCOC(78-159), 3 mg/ml, with subtilisin 1:2000 (w/w) for in situ proteolysis; hanging drops, 20 °C, 100 mM sodium acetate pH 4.6, 0.7 M 1,6-hexanediol, 10 mM CoCl2.
Turning to B6, the binding result is “binds”.
